# Laboratory results taken from a protein production outcome set (Wang et al. 2014).
# Assay: label from the status in PepcDB records
sequence,measurement,value
MQRIRIIDSHTGGEPTRLVIGGFPDLGQGDMAERRRLLGERHDAWRAACILEPRGSDVLVGALLCAPVDPEACAGVIFFNNSGYLGMCGHGTIGLVASLAHLGRIGPGVHRIETPVGEVEATLHEDGSVSVRNVPAYRYRRQVSVEVPGIGRVSGDIAWGGNWFFLVAGHGQRLAGDNLDALTAYTVAVQQALDDQDIRGEDGGAIDHIELFADDPHADSRNFVLCPGKAYDRSPCGTGTSAKLACLAADGKLLPGQPWRQASVIGSQFEGRYEWLDGQPGGPIVPTIRGRAHVSAEATLLLADDDPFAWGIRR,protein production,not failed
MCRSGSRCCPPIKLRVACVVAASILTARAGTYAIAACYVAALRVMDQRIAMSLQVLGAGLGRTGTLSLKFALEHLGFGPCYHATEVAANMRTALPLWNAAERGAADWSAIFAGYRSSTDHPGCYYWRQLIEVYPQAKVVLTVRDPDSWFESVTQTILMPGRKSTFVGPEGETFSTFLKQQMGGRSQDRAFMVDYFNRWNQAVIDTVPADRLLVFSARQGWAPLCSFLGVPVPHKPYPHLHARPRLRWFTRGLRLPDDVAARERHVREYLEYLREDLFG,protein production,failed
MRMVAHRFLRPQEAHMQVLVRDNNVDQALRILKKKLQREGVFREMRLREAFEKPSIKKAREKAEAIGRQRKLARKQMQREGLLPTKPRKDKLEHHHHHH,protein production,failed
MSTALATLAGKLAERVGMDSVDPQELITTLRQTAFKGDASDAQFIALLIVANQYGLNPWTKEIYAFPDKQNGIVPVVGVDGWSRIINENQQFDGMDFEQDNESCTCRIYRKDRNHPICVTEWMDECRREPFKTREGREITGPWQSHPKRMLRHKAMIQCARLAFGFAGIYDKDEAERIVENTAYTAERQPERDITPVNDETMQEINTLLIALDKTWDDDLLPLCSQIFRRDIRASSELTQAEAVKALGFLKQKATEQKVAA,protein production,failed
MSLVVFLIAYVIRRRLDRADHLAGDEVWRNWFHRWGRVEAGQERSVWRGALLVVLPSLALAGAWALSSEAGYRYALYPLELVLMVVLMGAPGWRKVLRAYSDAWRRGDMQAAWHHVQERLPASERGAALSPEAMHLSVSRALMVSVFERFFLVVFWYAVGGIALAFLARGLVALAGQWPQAAARERYQRAARLIGWIPSRLLSCTFGLAGDLAGWSREIRKVFPGFGKKTADVLMISANGSLTGYALDPARFSELHPEEWPDFGGRSLSAIRDLLNRSMLVWICAFALLVIAGMA,protein production,failed
MSRRNGGLFPTDLQTIARDIGSLLLMEAGLMTITAAVALGFQEFYAAFGFFTAAGMTAGVGGLANRGFSDAPAPQMKHGMVIAAGGWLLVAAFGSLPFLLTAWFTPPAVMDTFVPVGTDTSTWAPIRVGGTTTLSSLAYFRNPLHAFFESMSGWTGSGLTMAIHEPSLPRAVQWWRSFIQYVGGVGVIVLTVSILSRPGSGSYALYQSEAREEKIHPSVVSTVRTVWKLVVGYTVLSFALLFGAILASDSEYAESLPLWEVAWQALNHAMTGLTTGGFSVTDNSIATYNSPLVETVLLPIMILGAIAFPVHYVVLHDRQVRELVTDLQTRWLFILLTVGVVGLSVQNAWSVPATTEAFATQSFLPVSVPMLNAAQLDAVRDSTFQWVSALSCTGFQSAPIGRWLAGGKVLVAGAMVLGGAAGSTVGGIKIIRGYTIVRGIIWQFSRVFLPTNAVITARIGNRTLDRESMEREFSEAAIVTLLWLIILIISSVVLTNVAGPAFGYADALFEVASAQGNVGLSSGITGPSMPAIAEGMFVLNMWVGRLEIIPILVFIRAGLYGLDP,protein production,failed
MLIAILLLLLSIFNIFIGKKVKDKNLAHLLSGFDKEKDDLEYVSSVLGNTFKWIGNLGVIITAIYLILINSISVGLYLICYVGVIILFTVNLTFKTDRHRRSKLKASK,protein production,failed
FFSVSNIGLHARAYKDKLFVHTASLRSGNPYKQVDLLVLDAKGETVLQGATDDNGNALLNYTLNAGHVLVSRNGRDISILPFNQPALDLSEFAVAGRENPWFDVFAWSGRDLYRPGEMLRISALLRDRDGKPVKPQPVFLRLKQPDGKTFRETRLQPAEQGYLEFTQKIPSDAPTGRWRVEFRTDPASKEAVQGLAVRVEEFLPERMKLELSSAQPVLRAKAPFTLTADAAYLYGAPAAGNRFTANLAVAVEQHPLDNMPGWFFGDATL,protein production,failed
MSLQFNPIGLFLVALILLGVLGNNNSITISATLLLLMQQTALNKYIPMLEKYGLTIGIIILTIGVLSPIVSGKINLPNLSEILSWKMALAISIGIFVAWLGGRGINLMATQPLIITGLLIGTIIGIAFFGGIPVGPLIAAGIMSLLVGKL,protein production,failed
MKLSILKNSMNSGKAVLFIVTGIIGLLIAIGTMLLFSFYPTEQNVSQSILYITFALWTVGWVLGPIIAGGDGILRSEYFVLLPFTSYKLARALLVVAFIGLGPIVSLIAFIGLFIYAARVSLSATIVAIPAIILQLIFVVLLSKVVVSIIGETLKSRIGMEVGAMLFGFIIAFLNVGWYVLPTINKMTLSDSTLLYMFPSSWAILAVEYAIQSNWLLVLVFLIVLTILCGLLFFIWATLLMKSTETKKIEGRITTNKHRKALRFFSETKIGATITKELKSWRRDPQRGRFLRMGIWIGVFYGILVTSANISYLMPWAGIIMIVFTSMFSCNIYGFDGSALWLTLTTPDAERIDVRGRQFAWLIAVGPIAILATIIFTISSGLTFIYPWVFTVIPALLGGAAGLIMLFSVFNVVPITDPHRRGRGSVISGDDMNASKMFITTWLMMVMVMATTIPALLVVWLGTLLHVQFLQWLGVLTGICTGMFFAWWFGRIAYLKIEKSGSELLFEMKNGMKTLRDDNKKKGNRKAVELPKKKLAIVVLLVFMGIFFLIHQSVVPLIFEIFSIDDKVRLFFLPRYVPHIVRIPIIILFAILGIASLYKAILIKKKHGKEHRFIKDEM,protein production,failed
MGMKDVFKRYLVFVIGLYFLAAGIVLIVRSALGTTPISSVNYVLSLNSPLSLGTCTFLINMLLILGQFWVIRKNKTRQDTIEILLQLPFSFIFSAFIDFNMALTSNLHPDNYGMSIALLLTGCMIQSIGVVLELKPKVAMMSAEAFVKYASRRYNKEFGKFKVCFDVTLVTLAVILSLLLSQCIEGVREGSLIAACITGYIVSFLNQKIMTRKTLYKLLPVLK,protein production,failed
MAGLINKIGDALHIGGGNKEGEHKKEEEHKKHVDEHKSGEHKEGIVDKIKDKIHGGEGKSHDGEGKSHDGEKKKKKDKKEKKHHDDGHHSSSSDSDSD,protein production,failed
MAKSWCTVLERPATRAARSLAIKRSEKGEMLVSGLPYLSAVDDVTLMLRDGDLMGSFVVEGINAETVDSFHTVELCNAFSRFIAQQRSDVAYYVHRISVETRPTMPPVGGHPFNEEIDRRWQGYLQTVGLRDRVTVVTLVIRPPRKTTKFLSLFGGRDVHSRHEVEARALRLDQMINTCMVGVGEAGPSRLTVSDGRWLGLLRTLIDGSGGSLIPGTKFLPVADLLASSQITFQGPVFECEGTDPARRRFGTIVSVKDYPAETYPGILDRLNLPYNTVVTQSFTPIDPISAQGKIARVRKQMRAAEDAAISLMAQLEEAEDDVASGRVIFGDHHCSVAVFCDSLKELDGAMAYVTRAMQDAGAAIVRENFSSRVVYFAQHPGNFAYRTRPAMISSQNFAQLCAMHGQSKGSPPDKCPWGDAVTIFPTARGETFRFNFHLPGKPGQRTVGHTLVLGQTGSGKTLGTAFLISQAQRLGARTILFDKDNGFEMAVRAMGGCYSAVRMGDETGFNPMRAEADSRGAAWLMDWLAALAENDGGKLNPVQIQALSDAVQANTTADPRLQNLEQFRSQLRATDDDGDLYNRLGRWDETGQFGWLFGGKGLDPLAFDNRLTAFDLTEIFDNDVVRTAWLSYVFRRVERLVEDEHPTLLVLDEAWKLLDNPYFEARLKDWMLTMRKKNVAVVLLTQRVSHIKNSAAGDAILESAVTRLVYTSSFNTAAELAPLHLTPTESAFLQMSNVDNHLVLLKSGSDSVVLDFDLVAIGKGIDVLGGGRGQKAIAGWRDRPDFQMEMLHLEHHHHHH,protein production,failed
MREHLKLFSLIFSYPDEDKLGKAIALAEGIGLTEIAQTLKQVDIEALQVEYTSLFISSHPSVPCPPYQSYFEEGSVYGKASLRAAELYSKYGLNYVYESEPPDHISVELEFLSMNPELLSDFRDWFLEFAKCVEEKSEIYATFARAFRKFLEKPSKVQS,protein production,not failed
MVILEQTHLVKNKAVDNKKSMKYSIFQQALTIAVILLISKIIESFMPIPMPASVIGLVLLFIALCTGIVKLGQVETVGTALTNNIGFLFVPAGISVINSLPILKQSPILIILLIIISTLLLLICTGFSSQLLVTKSLFPSKEKNEETSHIGG,protein production,failed
MLTTQGVPEFCYITIIGLILFMIFKEVLSQSKFWRKDLESSSNMVILPLLISFSAIVAYKIAEIL,protein production,failed
MPLIVSSSIMIHAKLIYTFEDAQLDGQIVAALDVNTVANAVYAHNYGSNLVKTRNIQSLSVKEVTKLQANMLLMSPPCQPHTRQGLQRDTEDKRSDALTH,protein production,failed
MSVPAIAPRRKRLADGLSVTQKVFVRSRNGGATKIVREHYLRSDIPCLSRSCTKCPQIVVPDAQNELPKFILSDSPLELSAPIGKHYVVLDTNVVLQAIDLLENPNCFFDVIVPQIVLDEVRNKSYPVYTRLRTLCRDSDDHKRFIVFHNEFSEHTFVERLPNETINDRNDRAIRKTCQWYSEHLKPYDINVVLVTNDRLNREAATKEVESNIITKSLVQYIELLPNADDIRDSIPQMDSFDKDLERDTFSDFTFPEYYSTARVMGGLKNGVLYQGNIQISEYNFLEGSVSLPRFSKPVLIVGQKNLNRAFNGDQVIVELLPQSEWKAPSSIVLDSEHFDVNDNPDIEAGDDDDNNESSSNTTVISDKQRRLLAKDAMIAQRSKKIQPTAKVVYIQRRSWRQYVGQLAPSSVDPQSSSTQNVFVILMDKCLPKVRIRTRRAAELLDKRIVISIDSWPTTHKYPLGHFVRDLGTIESAQAETEALLLEHDVEYRPFSKKVLECLPAEGHDWKAPTKLDDPEAVSKDPLLTKRKDLRDKLICSIDPPGCVDIDDALHAKKLPNGNWEVGVHIADVTHFVKPGTALDAEGAARGTSVYLVDKRIDMLPMLLGTDLCSLKPYVDRFAFSVIWELDDSANIVNVNFMKSVIRSREAFSYEQAQLRIDDKTQNDELTMGMRALLKLSVKLKQKRLEAGALNLASPEVKVHMDSETSDPNEVEIKKLLATNSLVEEFMLLANISVARKIYDAFPQTAMLRRHAAPPSTNFEILNEMLNTRKNMSISLESSKALADSLDRCVDPEDPYFNTLVRIMSTRCMMAAQYFYSGAYSYPDFRHYGLAVDIYTHFTSPIRRYCDVVAHRQLAGAIGYEPLSLTHRDKNKMDMICRNINRKHRNAQFAGRASIEYYVGQVMRNNESTETGYVIKVFNNGIVVLVPKFGVEGLIRLDNLTEDPNSAAFDEVEYKLTFVPTNSDKPRDVYVFDKVEVQVRSVMDPITSKRKAELLLK,protein production,failed
MQTIYRLKEPQIDREEDVRTIIQTFLFQFSEKAYGGPSFNRPACCFAPHIYGAGKTFVGQNFSAYLNIFAERECSNAQTFQQLHSSNDNPQPSELKVPWKHFAEKTLSVCFKLEESFSDAPFPSFRKALMYNIILNS,protein production,not failed
MTQNNILLISGAILPVIITVIIGYISGKRKDFNWQQAGDINKIVMLYALPLSIFSNMVMTPRHIVMTMGPVAVAIILALILSFVIPLLVARYLFRRDLALSTLQALAIGSPAVPFIGTSVLAFLFGTVSASLITVSSITQNVFQLPLVMILMSVATGDKSQHISFGARVVNAIKQPVVWSPVIALIIVLADIHIPQTISMSLGLLGKASGGLALFAAGIVLYTRSIVITTATIITVIARNILVPGACYLILLKMGFSMEQIKEVVLTMAIPVGSIAIIIAMQYKTGEQEMASTMALSIIASIITMGGFIFLTF,protein production,failed
MGWKMQATVTEIGKHAIDDSEKMIILFGETATDTLKQHAVIQSFPEKDQVTLAEGDHLKIGDTNYTITKVGSFANSNLQSIAHSTLIFADAPTDEDDVIRNGVYLTPHQLPKITIGTTIDYLVNGA,protein production,not failed
